± gives the uncertainty stated by the source.
Test: self-splicing fitness, log relative to wild type (ln ratio); higher = more splicing; Tetrahymena group I intron in knt gene, E. coli kanamycin selection, DiMSum; sequences stand for … in CUCUCU…GGAGGGAAAAGUUAUCAGGCAUGCACCUGGUAGCUAGUCUUUAAACCAAUAGAUUGCAUCGGUUUAAAAGGCAAGACCGUCAAAUUGCGGGAAAGGGGUCAACAGCCGUUCAGUACCAAGUCUCAGGGGAAACUUUGAGAUGGCCUUGCAAAGGGUAUGGUAAUAAGCUGACGGACAUGGUCCUAACCACGCAGCCAAGUCCUAAGUCAACAGAUCUUCUGUUGAUAUGGAUGCAGUUCACAGACUAAAUGUCGGUCGGGGAAGAUGUAUUCUUCUCAUAAGAUAUAGUCGGACCUCUCCUUAAUGGGAGCUAGCGGAUGAAGUGAUGCAACACUGGAGCCGCUGGGAACUAAUUUGUAUGCGAAAGUAUAUUGAUUAGUUUUGGAGUACUCGUGGUCG
Summary of the method: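 Pooled colonies went to amplicon sequencing on an Illumina HiSeq 2500 after six replicate transformations. The plates were LB agar with 100 μg/mL carbenicillin, 50 μM IPTG and 0.2% rhamnose, with or without 25 μg/mL kanamycin, incubated overnight at 37°C or 30°C. The E. coli BL21(DE3) library had all eight P1ex-region intron nucleotides randomised, the intron placed in the knt kanamycin-resistance gene on pET-22b(+). DiMSum fitness is the error-weighted combination of replicate fold changes, kanamycin against none, normalised to wild type.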

| Sequence | self-splicing fitness (ln) (30 °C) | self-splicing fitness (ln) (37 °C) |
| --- | --- | --- |
| CUCGAGCAAUAUUACGUGAG | -2.41 ± 0.17 | -2.32 ± 0.23 |
| CUCGAGCAAUAUUACGUGCG | -3.08 ± 0.2 | -2.91 ± 0.17 |
| CUCUAGCAAUAUUACGAAAG | -2.34 ± 0.2 | -2.11 ± 0.34 |
| CUCUAGCAAUAUUACGACAA |  | -2.35 ± 0.28 |
| CUCUAGCAAUAUUACGAUAU | -3.45 ± 0.24 | -3.2 ± 0.25 |
| CUCUAGCAAUAUUACGAUCU |  | -1.9 ± 0.3 |
| CUCUAGCAAUAUUACGCAGA | -4.08 ± 0.31 | -3.59 ± 0.22 |
| CUCUAGCAAUAUUACGCGUU |  | -2.14 ± 0.18 |
| CUCUAGCAAUAUUACGCUGG | -3.13 ± 0.23 | -1.51 ± 0.32 |
| CUCUAGCAAUAUUACGGCAA | -2.38 ± 0.2 |  |
| CUCUAGCAAUAUUACGGCGC | -2.53 ± 0.28 | -3.04 ± 0.43 |
| CUCUAGCAAUAUUACGGCUG | -2.87 ± 0.24 | -2.31 ± 0.25 |
| CUCUAGCAAUAUUACGUAUA | -2.7 ± 0.3 | -2.84 ± 0.25 |
| CUCUAGCAAUAUUACGUAUU | -2.14 ± 0.13 | -3.57 ± 0.25 |
| CUCUAGCAAUAUUACGUCUC | -3.06 ± 0.23 | -1.81 ± 0.29 |
| CUCUAGCAAUAUUACGUUCU | -3.1 ± 0.15 | -3.47 ± 0.22 |
| CUGAAGCAAUAUUACGAAUA | -2.41 ± 0.48 | -2.22 ± 0.43 |
| CUGAAGCAAUAUUACGAAUU | -3.24 ± 0.12 | -1.86 ± 0.14 |
| CUGAAGCAAUAUUACGACCG | 0.3 ± 0.15 | 0.854 ± 0.17 |
| CUGAAGCAAUAUUACGACGC | -3.78 ± 0.35 |  |
| CUGAAGCAAUAUUACGACUU | -3.13 ± 0.35 | -1.75 ± 0.3 |
| CUGAAGCAAUAUUACGAUUA | -2.6 ± 0.2 | -2.84 ± 0.29 |
| CUGAAGCAAUAUUACGAUUC | -3.13 ± 0.23 | -2.5 ± 0.29 |
| CUGAAGCAAUAUUACGCCAA | -3.31 ± 0.41 |  |
| CUGAAGCAAUAUUACGCCUA | -3.82 ± 0.24 | -3.63 ± 0.33 |
| CUGAAGCAAUAUUACGCUGC | -2.12 ± 0.34 |  |
| CUGAAGCAAUAUUACGGAAC |  | -2.55 ± 0.3 |

| Sequence | self-splicing fitness (ln) (30 °C) | self-splicing fitness (ln) (37 °C) |
| --- | --- | --- |
| CUGAAGCAAUAUUACGGAAG | -1.37 ± 0.096 | -0.636 ± 0.12 |
| CUGAAGCAAUAUUACGGACA | -1.79 ± 0.14 | -2.22 ± 0.27 |
| CUGAAGCAAUAUUACGGAUU | -4.16 ± 0.17 | -3.01 ± 0.26 |
| CUGAAGCAAUAUUACGGCUU | -4 ± 0.34 | -2.84 ± 0.26 |
| CUGAAGCAAUAUUACGUAAA | -2.54 ± 0.33 | -1.7 ± 0.46 |
| CUGAAGCAAUAUUACGUCAC | -2.03 ± 0.11 | -2.73 ± 0.24 |
| CUGAAGCAAUAUUACGUGAU | -2.7 ± 0.12 | -1.07 ± 0.15 |
| CUGCAGCAAUAUUACGAACU | -2.75 ± 0.3 | -2.34 ± 0.33 |
| CUGCAGCAAUAUUACGACGG | -2.75 ± 0.17 | -0.0134 ± 0.14 |
| CUGCAGCAAUAUUACGAGCG | -0.799 ± 0.093 | 0.667 ± 0.11 |
| CUGCAGCAAUAUUACGAGGG | -4.19 ± 0.24 | -1.95 ± 0.17 |
| CUGCAGCAAUAUUACGCAAU | -3.55 ± 0.25 | -2.77 ± 0.21 |
| CUGCAGCAAUAUUACGCCCA |  | -1.31 ± 0.49 |
| CUGCAGCAAUAUUACGCUUG | -3.55 ± 0.2 | -2.25 ± 0.22 |
| CUGCAGCAAUAUUACGCUUU | -4.46 ± 0.28 | -2.6 ± 0.26 |
| CUGCAGCAAUAUUACGGACU | -3.58 ± 0.21 | -1.33 ± 0.15 |
| CUGCAGCAAUAUUACGGGCG | -1.3 ± 0.059 | -0.522 ± 0.073 |
| CUGCAGCAAUAUUACGGGGA | -2.72 ± 0.19 | -2.22 ± 0.18 |
| CUGCAGCAAUAUUACGGUAA | -2.7 ± 0.16 | -1.76 ± 0.14 |
| CUGCAGCAAUAUUACGGUAU | -4.53 ± 0.25 | -2.85 ± 0.19 |
| CUGCAGCAAUAUUACGGUGA | -2.37 ± 0.12 | -0.923 ± 0.099 |
| CUGCAGCAAUAUUACGGUUU | -3.11 ± 0.13 | -1.43 ± 0.12 |
| CUGCAGCAAUAUUACGUAAA | -3.28 ± 0.14 | -1.19 ± 0.14 |
| CUGCAGCAAUAUUACGUAAC | -3.31 ± 0.26 | -2.38 ± 0.29 |
| CUGCAGCAAUAUUACGUACA | -2.96 ± 0.29 | -1.43 ± 0.19 |
| CUGCAGCAAUAUUACGUGGU | -3.34 ± 0.18 | -3.71 ± 0.31 |
| CUGGAGCAAUAUUACGAAGU | -2.22 ± 0.37 | -2.38 ± 0.43 |

| Sequence | self-splicing fitness (ln) (30 °C) | self-splicing fitness (ln) (37 °C) |
| --- | --- | --- |
| CUGGAGCAAUAUUACGAGCA | -2.32 ± 0.46 | -2.63 ± 0.42 |
| CUGGAGCAAUAUUACGAGGC | -2.02 ± 0.4 | -0.672 ± 0.47 |
| CUGGAGCAAUAUUACGAGGG | -2.67 ± 0.24 | -2.08 ± 0.34 |
| CUGGAGCAAUAUUACGAUUA | -2.56 ± 0.27 | -1.07 ± 0.26 |
| CUGGAGCAAUAUUACGCAGG | -3.11 ± 0.23 | -2.36 ± 0.2 |
| CUGGAGCAAUAUUACGCCUC |  | -1.07 ± 0.47 |
| CUGGAGCAAUAUUACGCGAG | -3.24 ± 0.23 | -2.47 ± 0.26 |
| CUGGAGCAAUAUUACGCGCU | -3.54 ± 0.47 |  |
| CUGGAGCAAUAUUACGCGUG | -3.27 ± 0.15 | 0.32 ± 0.12 |
| CUGGAGCAAUAUUACGCUGU |  | -3.04 ± 0.48 |
| CUGGAGCAAUAUUACGGAGG |  | -2.18 ± 0.36 |
| CUGGAGCAAUAUUACGGCAG | -2.77 ± 0.15 | -1.94 ± 0.16 |
| CUGGAGCAAUAUUACGGCCU | -2.88 ± 0.38 | -1.85 ± 0.3 |
| CUGGAGCAAUAUUACGGGCG | -1.16 ± 0.12 | -0.434 ± 0.12 |
| CUGGAGCAAUAUUACGGUGG | -3.55 ± 0.14 | -1.93 ± 0.12 |
| CUGGAGCAAUAUUACGGUGU | -4.16 ± 0.36 | -2.02 ± 0.2 |
| CUGGAGCAAUAUUACGUACG | -0.531 ± 0.089 | 0.504 ± 0.12 |
| CUGGAGCAAUAUUACGUCAC | -2.63 ± 0.39 | -2.53 ± 0.39 |
| CUGGAGCAAUAUUACGUGAA | -3.42 ± 0.22 | -2.01 ± 0.16 |
| CUGUAGCAAUAUUACGAAUA | -2.54 ± 0.37 | -2.82 ± 0.48 |
| CUGUAGCAAUAUUACGACCG | -0.99 ± 0.34 | 0.0218 ± 0.25 |
| CUGUAGCAAUAUUACGAGUG | -0.807 ± 0.07 | 0.314 ± 0.11 |
| CUGUAGCAAUAUUACGAUCG | 0.206 ± 0.16 | 0.548 ± 0.21 |
| CUGUAGCAAUAUUACGAUGC | -2.62 ± 0.17 |  |
| CUGUAGCAAUAUUACGCAUG | -1.06 ± 0.1 | -0.55 ± 0.13 |
| CUGUAGCAAUAUUACGCGCA | -2.23 ± 0.39 | -2.52 ± 0.41 |

From the supplement of paper PMC7877785
